These results are taken from the supplement of paper PMC9233669.

One data set has as its system biotinyl-Phe-oxazolone. Description: self-aminoacylation, catalytic enhancement (BFO) (fold over background); higher = more active; k-Seq, kA / k0A0; sequences stand for … in GGGAAUGGAUCCACAUCUACGAAUUC…UUCACUGCAGACUUGACGAAGCUG
In outline: (§1)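 Mutagenized RNA pools (0.43 μM; 21-nt variable region) were treated with 2–1250 μM of each biotinyl-aminoacyl-oxazolone. Conditions were 50 μL HEPES/NaCl/KCl/MgCl2/CaCl2 buffer, 5% acetonitrile, pH 6.9–7.0, room temperature, 90 minutes. Catalytic enhancement, the median kA relative to the uncatalyzed rate, was derived from streptavidin capture, qPCR and Illumina sequencing.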

Another data set relates to biotinyl-Val-oxazolone. Nature of the data set: self-aminoacylation, catalytic enhancement (BVO) (fold over background); higher = more active; k-Seq, kA / k0A0; sequences stand for … in GGGAAUGGAUCCACAUCUACGAAUUC…UUCACUGCAGACUUGACGAAGCUG
In outline: as §1

For another data set, the system named is biotinyl-Leu-oxazolone. Nature of the data set: self-aminoacylation, catalytic enhancement (BLO) (fold over background); higher = more active; k-Seq, kA / k0A0; sequences stand for … in GGGAAUGGAUCCACAUCUACGAAUUC…UUCACUGCAGACUUGACGAAGCUG
The procedure, abridged: as §1

The next data set relates to biotinyl-Ile-oxazolone. Description: self-aminoacylation, catalytic enhancement (BIO) (fold over background); higher = more active; k-Seq, kA / k0A0; sequences stand for … in GGGAAUGGAUCCACAUCUACGAAUUC…UUCACUGCAGACUUGACGAAGCUG
In outline:
as §1

The test system of the next data set is biotinyl-Met-oxazolone. Description: self-aminoacylation, catalytic enhancement (BMO) (fold over background); higher = more active; k-Seq, kA / k0A0; sequences stand for … in GGGAAUGGAUCCACAUCUACGAAUUC…UUCACUGCAGACUUGACGAAGCUG
The procedure, abridged: as §1

Another data set has as its system biotinyl-Trp-oxazolone. Nature of the data set: self-aminoacylation, catalytic enhancement (BWO) (fold over background); higher = more active; k-Seq, kA / k0A0; sequences stand for … in GGGAAUGGAUCCACAUCUACGAAUUC…UUCACUGCAGACUUGACGAAGCUG
The procedure, abridged:
as §1

This sample holds only a part of the variants without activity.

For “AUUAUCCAGGUCAUCGAGUGA [Fam2.1 aminoacylation ribozyme variant]”, the self-aminoacylation with biotinyl-Phe-oxazolone was 30.3; with biotinyl-Val-oxazolone, 3.41; in the data set with biotinyl-Leu-oxazolone, 6.32; with biotinyl-Ile-oxazolone, 3.13; in the data set on biotinyl-Met-oxazolone it was 6.52; in the data set on biotinyl-Trp-oxazolone, 7.93.

“CCACACAUCAAGCAAUCGCUC [Fam1B.1 aminoacylation ribozyme variant]”: the self-aminoacylation was found to be 0.869 in the data set on biotinyl-Phe-oxazolone; 1.68 with biotinyl-Val-oxazolone; 1.21 with biotinyl-Leu-oxazolone; 1.43 with biotinyl-Ile-oxazolone; 1.04 with biotinyl-Met-oxazolone; 1.64 with biotinyl-Trp-oxazolone.

“CUACUUCUAACUAUCGGUCUG [Fam1A.1 aminoacylation ribozyme variant]”: the self-aminoacylation in the data set on biotinyl-Phe-oxazolone came out at 0.796; in the data set with biotinyl-Val-oxazolone it was 0.841; with biotinyl-Leu-oxazolone it was 0.628; with biotinyl-Ile-oxazolone, 0.734; in the data set on biotinyl-Met-oxazolone, 0.766; in the data set on biotinyl-Trp-oxazolone, 0.65.

Regarding “CUACGUCUAACAAUCGGUCUG [Fam1A.1 aminoacylation ribozyme variant]”, the self-aminoacylation with biotinyl-Phe-oxazolone came out at 1.21; with biotinyl-Val-oxazolone, 0.856; in the data set with biotinyl-Leu-oxazolone it was 0.941; in the data set on biotinyl-Ile-oxazolone, 0.89; in the data set on biotinyl-Met-oxazolone it was 0.918; in the data set with biotinyl-Trp-oxazolone it was 0.703.

With “CCACACUUCAAGCGAUCGGUG [Fam1B.1 aminoacylation ribozyme variant]”, the self-aminoacylation was 41.8 in the data set on biotinyl-Phe-oxazolone; 4.66 in the data set on biotinyl-Val-oxazolone; 8.84 in the data set on biotinyl-Leu-oxazolone; 4.19 in the data set with biotinyl-Ile-oxazolone; 6.68 in the data set on biotinyl-Met-oxazolone; 6.74 with biotinyl-Trp-oxazolone.

On to “AUUCACCUAGGACAUCGGGUU [Fam2.2 aminoacylation ribozyme variant]”, for which the self-aminoacylation in the data set on biotinyl-Phe-oxazolone was determined as 3.67; in the data set with biotinyl-Val-oxazolone, 1.77; in the data set on biotinyl-Leu-oxazolone, 1.38; in the data set on biotinyl-Ile-oxazolone, 1.47; in the data set on biotinyl-Met-oxazolone it was 1.39; in the data set with biotinyl-Trp-oxazolone it was 1.25.

Turning to “CUACUUCAAACAAUCGGUUUG [Fam1A.1 aminoacylation ribozyme variant]”, the self-aminoacylation with biotinyl-Phe-oxazolone was 43.4; in the data set on biotinyl-Val-oxazolone, 1.1; in the data set with biotinyl-Leu-oxazolone, 1.54; with biotinyl-Ile-oxazolone, 1.07; in the data set on biotinyl-Met-oxazolone, 1.08; with biotinyl-Trp-oxazolone, 23.9.

On to “CCACACUUUAAGCAGUCGGUC [Fam1B.1 aminoacylation ribozyme variant]”, for which the self-aminoacylation with biotinyl-Phe-oxazolone came to 1.16; in the data set with biotinyl-Val-oxazolone it was 0.946; in the data set with biotinyl-Leu-oxazolone it was 0.926; in the data set with biotinyl-Ile-oxazolone it was 0.858; with biotinyl-Met-oxazolone, 0.755; with biotinyl-Trp-oxazolone it was 0.623.

For “AUUCACCUAGGGCAUAGGGUG [Fam2.2 aminoacylation ribozyme variant]”, the self-aminoacylation in the data set with biotinyl-Phe-oxazolone came to 38.6; with biotinyl-Val-oxazolone, 2.76; with biotinyl-Leu-oxazolone, 6.33; in the data set with biotinyl-Ile-oxazolone, 3.22; in the data set with biotinyl-Met-oxazolone, 4.74; in the data set with biotinyl-Trp-oxazolone, 4.16.

In the case of “CCACACGUUAAGCAAUCGGUC [Fam1B.1 aminoacylation ribozyme variant]”, the self-aminoacylation is 1.05 in the data set on biotinyl-Phe-oxazolone; 1.15 in the data set on biotinyl-Val-oxazolone; 0.93 with biotinyl-Leu-oxazolone; 1.09 in the data set on biotinyl-Ile-oxazolone; 0.992 in the data set on biotinyl-Met-oxazolone; 0.931 in the data set on biotinyl-Trp-oxazolone.

As to “AUCACCCUGGUUAUCGAGUGA [Fam2.1 aminoacylation ribozyme variant]”, the self-aminoacylation with biotinyl-Phe-oxazolone amounted to 86.5; in the data set on biotinyl-Val-oxazolone it was 5.37; in the data set with biotinyl-Leu-oxazolone it was 13.5; in the data set with biotinyl-Ile-oxazolone it was 4.98; with biotinyl-Met-oxazolone, 12; with biotinyl-Trp-oxazolone, 12.2.

On to “AUUAACCUGGUCUUCGAGUGA [Fam2.1 aminoacylation ribozyme variant]”, for which the self-aminoacylation with biotinyl-Phe-oxazolone came out at 13; in the data set on biotinyl-Val-oxazolone, 2.71; in the data set with biotinyl-Leu-oxazolone it was 4.66; in the data set with biotinyl-Ile-oxazolone it was 2.4; with biotinyl-Met-oxazolone, 4.3; in the data set with biotinyl-Trp-oxazolone, 6.87.

Turning to “AUUACUCUGGGCAUCGAGUGA [Fam2.1 aminoacylation ribozyme variant]”, the self-aminoacylation with biotinyl-Phe-oxazolone was found to be 41.2; in the data set with biotinyl-Val-oxazolone, 3.11; in the data set on biotinyl-Leu-oxazolone, 6.57; with biotinyl-Ile-oxazolone, 3.71; in the data set with biotinyl-Met-oxazolone, 6.39; in the data set with biotinyl-Trp-oxazolone, 7.68.

Regarding “AUUACUCUGGUCAUAGAGUGA [Fam2.1 aminoacylation ribozyme variant]”, the self-aminoacylation in the data set with biotinyl-Phe-oxazolone turned out to be 20.8; with biotinyl-Val-oxazolone, 2.79; with biotinyl-Leu-oxazolone, 5.04; in the data set with biotinyl-Ile-oxazolone, 3.03; in the data set on biotinyl-Met-oxazolone, 4.99; in the data set with biotinyl-Trp-oxazolone, 6.05.

As to “AUUACCCGGGUCAUCGAGUGC [Fam2.1 aminoacylation ribozyme variant]”, the self-aminoacylation with biotinyl-Phe-oxazolone is 5.14; with biotinyl-Val-oxazolone, 1.39; with biotinyl-Leu-oxazolone, 1.72; in the data set with biotinyl-Ile-oxazolone it was 1.46; with biotinyl-Met-oxazolone, 1.21; in the data set on biotinyl-Trp-oxazolone, 1.13.

For “CUACUUGAAACAAUCGGUCGG [Fam1A.1 aminoacylation ribozyme variant]”, the self-aminoacylation was 0.733 in the data set with biotinyl-Phe-oxazolone; 0.949 with biotinyl-Val-oxazolone; 1.13 in the data set on biotinyl-Leu-oxazolone; 0.997 in the data set on biotinyl-Ile-oxazolone; 0.994 in the data set with biotinyl-Met-oxazolone; 0.589 in the data set with biotinyl-Trp-oxazolone.

Take “AUGACCCUGGUCAUCGGGUGA [Fam2.1 aminoacylation ribozyme variant]”: the self-aminoacylation with biotinyl-Phe-oxazolone turned out to be 571; in the data set with biotinyl-Val-oxazolone, 35.1; with biotinyl-Leu-oxazolone it was 99; with biotinyl-Ile-oxazolone, 31.9; in the data set with biotinyl-Met-oxazolone it was 90.6; in the data set on biotinyl-Trp-oxazolone it was 94.9.

“AUCCACCUAGGUCAUCGGGUG [Fam2.2 aminoacylation ribozyme variant]”: the self-aminoacylation with biotinyl-Phe-oxazolone is 240; in the data set with biotinyl-Val-oxazolone it was 17; in the data set with biotinyl-Leu-oxazolone it was 42; in the data set with biotinyl-Ile-oxazolone it was 18.4; with biotinyl-Met-oxazolone, 32.1; with biotinyl-Trp-oxazolone, 25.

Take “AUACUUCAAACAAUCGGACUG [Fam1A.1 aminoacylation ribozyme variant]”: the self-aminoacylation came to 3.32 in the data set with biotinyl-Phe-oxazolone; 0.666 in the data set with biotinyl-Val-oxazolone; 0.522 in the data set on biotinyl-Leu-oxazolone; 0.748 in the data set on biotinyl-Ile-oxazolone; 0.548 in the data set with biotinyl-Met-oxazolone; 2.34 in the data set with biotinyl-Trp-oxazolone.

As for “CCAAACUUCAAGCAGUCGGUC [Fam1B.1 aminoacylation ribozyme variant]”, the self-aminoacylation in the data set with biotinyl-Phe-oxazolone was 0.806; in the data set on biotinyl-Val-oxazolone, 1.18; in the data set with biotinyl-Leu-oxazolone, 1.1; in the data set with biotinyl-Ile-oxazolone it was 1.29; in the data set on biotinyl-Met-oxazolone, 1.01; in the data set with biotinyl-Trp-oxazolone it was 0.793.

For the sequence “AUACUUCAAACAUUCGGUCUG [Fam1A.1 aminoacylation ribozyme variant]”, the self-aminoacylation in the data set on biotinyl-Phe-oxazolone came out at 1.19; with biotinyl-Val-oxazolone, 1.1; with biotinyl-Leu-oxazolone it was 1.09; in the data set on biotinyl-Ile-oxazolone it was 1.18; in the data set with biotinyl-Met-oxazolone, 1.09; with biotinyl-Trp-oxazolone it was 1.11.

With “AUUCGCCUAGGUUAUCGGGUG [Fam2.2 aminoacylation ribozyme variant]”, the self-aminoacylation is 42.5 with biotinyl-Phe-oxazolone; 4.33 in the data set on biotinyl-Val-oxazolone; 6.76 with biotinyl-Leu-oxazolone; 3.77 in the data set with biotinyl-Ile-oxazolone; 5.77 in the data set with biotinyl-Met-oxazolone; 5.88 with biotinyl-Trp-oxazolone.

Turning to “GCACACUUCAACCAAUCGGUC [Fam1B.1 aminoacylation ribozyme variant]”, the self-aminoacylation turned out to be 60.5 in the data set on biotinyl-Phe-oxazolone; 2.43 in the data set on biotinyl-Val-oxazolone; 2.93 with biotinyl-Leu-oxazolone; 2.39 with biotinyl-Ile-oxazolone; 2.02 in the data set with biotinyl-Met-oxazolone; 44 in the data set on biotinyl-Trp-oxazolone.

Regarding “AUUCAACUAGGCCAUCGGGUG [Fam2.2 aminoacylation ribozyme variant]”, the self-aminoacylation in the data set on biotinyl-Phe-oxazolone amounted to 21.5; in the data set with biotinyl-Val-oxazolone, 2.31; with biotinyl-Leu-oxazolone it was 3.74; in the data set with biotinyl-Ile-oxazolone, 2.61; in the data set with biotinyl-Met-oxazolone, 3.66; in the data set with biotinyl-Trp-oxazolone it was 3.9.

Take “CUAGUUCAAACAAUCGGGCUG [Fam1A.1 aminoacylation ribozyme variant]”: the self-aminoacylation with biotinyl-Phe-oxazolone is 2.64; in the data set on biotinyl-Val-oxazolone, 1.42; with biotinyl-Leu-oxazolone it was 1.79; in the data set with biotinyl-Ile-oxazolone it was 1.54; in the data set with biotinyl-Met-oxazolone, 1.4; with biotinyl-Trp-oxazolone, 2.72.
